This assay deals with T1, 血清标本中的AFP抗原 (UniProt P02771 19-609).
T1 construct: also called 质控血清AFP; 标准血清中的AFP
T1 sequence (looked up): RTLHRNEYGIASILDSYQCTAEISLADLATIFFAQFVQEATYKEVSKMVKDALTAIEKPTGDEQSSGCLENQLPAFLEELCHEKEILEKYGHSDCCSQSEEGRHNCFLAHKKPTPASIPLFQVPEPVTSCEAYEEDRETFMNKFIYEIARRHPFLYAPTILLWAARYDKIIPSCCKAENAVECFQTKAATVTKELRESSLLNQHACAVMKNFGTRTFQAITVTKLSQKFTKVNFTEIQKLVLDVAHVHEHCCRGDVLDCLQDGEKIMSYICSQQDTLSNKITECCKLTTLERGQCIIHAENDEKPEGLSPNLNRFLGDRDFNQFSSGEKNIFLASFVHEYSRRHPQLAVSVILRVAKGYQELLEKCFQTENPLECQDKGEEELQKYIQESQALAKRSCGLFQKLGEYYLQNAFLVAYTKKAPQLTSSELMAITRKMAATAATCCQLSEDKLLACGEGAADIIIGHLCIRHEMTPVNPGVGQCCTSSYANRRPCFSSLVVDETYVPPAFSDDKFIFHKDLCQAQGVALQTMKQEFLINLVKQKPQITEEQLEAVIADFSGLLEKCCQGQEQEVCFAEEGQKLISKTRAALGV
Kind of assay: double-antibody sandwich chemiluminescent immunoassay, detection antibody.

B1: 带有化学发光区序列的纳米抗体1C5-HAP (other)
chain: QVQLQESGGGLVQAGGSLRLSCKASERTFSSYSMAWYRQAPGKKREFVASISWDDERTYYTDSVKGRFTISRPNAKNTVYLQMNSLKPEDTAVYYCAVGGLSDGLGPSYDYWGQGTQVTVSSGGGGSGGGGSGGGGSIIPVEEENPDFWNREAAEALGAAKKLQPAQTAAKNLIIFLGDGMGVSTVTAARILKGQKKDKLGPEIPLAMDRFPYVALSKTYNVDKHVPDSGATATAYLCGVKGNFQTIGLSAAARFNQCNTTRGNEVISVMNRAKKAGKSVGVVTTTRVQHASPAGTYAHTVNRNWYSDADVPASARQEGCQDIATQLISNMDIDVILGGGRKYMFRMGTPDPEYPDDYSQGGTRLDGKNLVQEWLAKRQGARYVWNRTELMQASLDPSVTHLMGLFEPGDMKYEIHRDSTLDPSLMEMTEAALRLLSRNPRGFFLFVEGGRIDHGHHESRAYRALTETIMFDDAIERAGQLTSEEDTLSLVTADHSHVFSFGGYPLRGSSIFGLAPGKARDRKAYTVLLYGNGPGYVLKDGARPDVTESESGSPEYRQQSAVPLDEETHAGEDVAVFARGPQAHLVHGVQEQTFIAHVMAFAACLEPYTACDLAPPAGTTD
notes: Expressed in 293 cells
Turning to B1, the binding result is on record as “binds”.

The values are drawn from patent CN113234166A (SHENZHEN INNOVA NANOBODI CO LTD, dated 2021).
